In patent publication US20250382353A1 (published 2025):

B1: Fab 2A10 (antibody, V domains shown)
VH: QVQLVESGGGLIQPGGSLRLSCAASEFIVSSNYMSWVRQAPGKGLEWVSLLYSGGTTYYADSVKGRFTISRDNSKNTLFLQMNSLRAEDTAMYYCARDRGPWLHDYWGQGTLVTVS
VL: DIVMTQSPSSLSASVGDRVTITCQASQDINKYCNWYQQKPGKAPKLLIYDASNLETGVPSRFSGSGSGTDFTFTINSLQPEDIATYYCQQYDNLPPTFGGGTKVEIK
B2: Fab 1C3 (Fab, V domains shown)
VH: QVQLLESGGGLVQPGRSLRLSCAASGFTFDDYAMHWVRQPPGKGLEWVSGSSWNSGSVVYADSVKGRFTISRDSAKNSLHLQMNSLRVEDTALYYCAKAVDPTRGSYSPDYGFDIWGQGTMVTVS
VL: not shown
B3: 1C3 antigen-binding fragment (Fab) (Fab, V domains shown)
VH: QVQLLESGGGLVQPGRSLRLSCAASGFTFDDYAMHWVRQPPGKGLEWVSGSSWNSGSVVYADSVKGRFTISRDSAKNSLHLQMNSLRVEDTALYYCAKAVDPTRGSYSPDYGFDIWGQGTMVTVS
VL: not shown

Key:
Experiment in all cases: SPR
[1] = target: SARS-CoV-2 Omicron BA.1 spike (SARS-CoV-2 Omicron BA.1, UniProt P0DTC2 14-1208)
[2] = target: rVSV-Delta spike (SARS-CoV-2 Delta, UniProt P0DTC2 14-1252)
[3] = target: BA.2
[4] = target: rVSV Beta spike (SARS-CoV-2 Beta, UniProt P0DTC2 14-1252)

| Binder | Kd [1] | Kd [2] | Kd [3] | Kd [4] |
| --- | --- | --- | --- | --- |
| B1 | 4.42 nM | 0.132 nM | – | – |
| B2 | – | – | 0.023 nM | – |
| B3 | 0.041 nM | 0.036 nM | – | 0.039 nM |
